In test [1] the target is Paclitaxel-stabilized microtubules (bovine brain αβ-tubulin) (bovine) (UniProt Q6B856).
For test [2] the target is unchanged. Description: co-sedimentation; 3 μM Cin8, 1 μM microtubules, no added nucleotide or 1 mM ATP, ADP or AMPPNP, low and high ionic strength; SDS-PAGE of supernatant and pellet.

As usually defined, the stoichiometry N is a count of units in the complex or per binding partner. With “Cin8-His-Δ99 (Cin8 motor domain in which the 99-residue loop 8 insert is substituted with the 7-residue loop 8 of Kip1) (from UniProt P27895 70-535) (domain or fragment)”, the K0.5,MT of the microtubule-stimulated steady-state ATPase (NADH coupled assay), 21 mM ionic strength in test [1] stood at 1.3 µM. The stoichiometry N in test [2] was determined as 1.3.
